The data set addresses MBP-BmPSI (P-element somatic inhibitor) (Bombyx mori, UniProt A8R081 1-703). The data set is described as follows: EMSA; RNA dissolved in protein purification buffer, 20 mM Tris, 20 mM NaCl; pH, temperature and EMSA binding details not given. To be noted: protein: recombinant; tags: N-terminal His6-MBP-TEV; label: biotin at 5' and 3' ends; single strand.

Sequence of MBP-BmPSI (P-element somatic inhibitor) (A8R081 entry or part of it): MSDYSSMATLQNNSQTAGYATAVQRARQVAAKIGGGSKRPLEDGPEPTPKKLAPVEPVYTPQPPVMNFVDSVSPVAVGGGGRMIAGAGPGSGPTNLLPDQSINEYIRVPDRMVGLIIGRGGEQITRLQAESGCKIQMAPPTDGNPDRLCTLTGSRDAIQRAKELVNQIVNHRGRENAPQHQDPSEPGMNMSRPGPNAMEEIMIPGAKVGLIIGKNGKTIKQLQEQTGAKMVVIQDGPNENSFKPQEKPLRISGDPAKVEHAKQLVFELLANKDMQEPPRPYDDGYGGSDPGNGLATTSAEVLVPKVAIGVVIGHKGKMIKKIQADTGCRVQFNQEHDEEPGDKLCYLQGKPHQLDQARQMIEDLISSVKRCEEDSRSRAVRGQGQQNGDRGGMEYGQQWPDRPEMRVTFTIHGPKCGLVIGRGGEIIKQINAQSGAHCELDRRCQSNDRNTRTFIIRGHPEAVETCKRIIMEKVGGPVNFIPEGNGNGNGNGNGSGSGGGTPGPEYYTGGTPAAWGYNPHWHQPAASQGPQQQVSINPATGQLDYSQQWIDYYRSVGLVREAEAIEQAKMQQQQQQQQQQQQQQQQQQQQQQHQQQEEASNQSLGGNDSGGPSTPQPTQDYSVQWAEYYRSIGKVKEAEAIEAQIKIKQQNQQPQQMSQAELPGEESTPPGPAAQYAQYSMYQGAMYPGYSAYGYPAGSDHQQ

As for UUAAUAAUAUAAGUGGUGUA (ssRNA) [CE1 RNA probe], the binding result is reported as “binds”.

Source of the values: publication PMC7177926, “Spliceosomal Protein Gene BmSPX Regulates Reproductive Organ Development in Bombyx mori”.
